Source: patent publication US7547509B2, “Cyanovirin variant-polymer conjugates” (priority 2002, dated 2009)

Key:
[1] = Acute toxicity dose escalation study in mice; assay type: in vivo, Hsd:ICR(CD-1) mice; conditions: intravenously on three consecutive days, high doses / equivalent dose
Protocol: To compare the acute toxicity of native CV-N and the PEG30 kD-MAL-CV-N(Q62C) conjugate, an in vivo dose escalation study was performed in which Hsd:ICR(CD-1) mice were administered modified or unmodified CN-N intravenously on three consecutive days.

[2] = test system: influenza A/Udorn (H3N2); assay: Influenza virus inactivation assay (protection of MDCK cells); assay type: cell-based; conditions: read on day 5, read-out: ED50 (dose required to protect 50% of MDCK cells from influenza infection)
[3] = test system: HIV; assay: Anti-HIV bioassay conducted at the National Cancer Institute; assay type: cell-based; conditions: against HIV, methods of U.S. Pat. No. 5,843,883
Protocol: Bioassays were conducted at the National Cancer Institute using the methods described in U.S. Pat. No. 5,843,883 (column 20, lines 20-55), which patent is incorporated herein by reference.

B1: Cyanovirin-N (protein, listed as Nostoc ellipsosporum)
chain: LGKFSQTCYNSAIQGSVLTSTCERTNGGYNTSSIDLNSVIENVDGSLKWQPSNFIETCRNTQLAGSSELAAECKTRAQQFVSTKINLDDHIANIDGTLKYE
[1]
  acute toxicity (observation): death of all of the mice
[2]
  EC50: 2.56 nM
[3]
  ED50: 1 ng/mL
